Data reported in EP4778940A1 (Artivila (ShenZhen) Innovation Center, Ltd., dated 2026).
Numbering of substitutions follows the chain as printed. One block for each binder: values may come before it.

Tests used:
[1] = biological target: T1, human HHLA2 on cells (K562-hHHLA2; HCC827) (human, UniProt Q9UM44 23-414); experiment: cell-based or functional assay
T1 sequence (looked up): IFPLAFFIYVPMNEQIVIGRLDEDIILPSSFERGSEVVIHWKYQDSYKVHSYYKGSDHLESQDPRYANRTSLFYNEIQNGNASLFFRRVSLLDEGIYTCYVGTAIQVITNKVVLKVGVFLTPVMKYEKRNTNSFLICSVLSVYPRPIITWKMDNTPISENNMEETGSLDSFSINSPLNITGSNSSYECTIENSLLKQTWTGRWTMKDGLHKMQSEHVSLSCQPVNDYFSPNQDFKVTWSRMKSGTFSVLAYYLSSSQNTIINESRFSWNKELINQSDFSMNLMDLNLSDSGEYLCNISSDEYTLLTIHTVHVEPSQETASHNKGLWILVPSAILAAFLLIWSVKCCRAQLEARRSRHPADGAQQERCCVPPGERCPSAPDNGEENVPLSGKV

[2] = biological target: T1, human HHLA2 on cells (K562-hHHLA2; …); experiment: flow cytometry on HCC827 tumor cells highly expressing human HHLA2
[3] = biological target: T2, human HHLA2 proteins (Acro Biosystems, B77-H52H5) (human, UniProt Q9UM44 23-344); experiment: ELISA, human HHLA2 protein coated
T2 construct: Bought recombinant protein coated on the ELISA plate; also called B7-H7; B7y
T2 sequence (looked up): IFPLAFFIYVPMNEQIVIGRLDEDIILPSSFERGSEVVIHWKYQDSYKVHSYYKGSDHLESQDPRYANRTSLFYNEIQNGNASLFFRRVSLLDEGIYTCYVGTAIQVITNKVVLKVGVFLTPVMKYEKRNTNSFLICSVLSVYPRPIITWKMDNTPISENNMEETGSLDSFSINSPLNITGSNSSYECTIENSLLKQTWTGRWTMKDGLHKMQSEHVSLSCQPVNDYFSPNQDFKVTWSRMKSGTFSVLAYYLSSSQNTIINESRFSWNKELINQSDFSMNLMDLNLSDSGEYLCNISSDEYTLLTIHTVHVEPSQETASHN

[4] = biological target: T1, human HHLA2 on cells (K562-hHHLA2; …); experiment: flow cytometry on K562-hHHLA2 cells

B2: Ab01-84M2 (antibody, V domains shown)
VH: DVQLQESGGGLVQAGGSLRLSCAASGFPFDDYSIGWFRQAPGKAREGISCISSTHGTTYYTDSVKDRFTITRDNAKNTVYLQMNNLKPEDAAVYYCAAGLDGLACHRRDSGSRYRTQLYDYWGQGTQVTVSS
binding result [3]: binds
binding result [4]: binds

B4: Ab01-63Ghm25 (antibody, V domains shown)
VH: EVQLLESGGGLVQPGGSLRLSCAASGFTLDYYVIGWFRQAPGKEREGVSCISSSTGSTYSADSVKGRFTISRDTSKNTVYLQMNSLRAEDTAVYYCAARRSPGIEGWCALPFFFGSWGQGTLVTVSS
notes: Humanized or engineered mutant of Ab01-63G4; also called mutant Ab01-63Ghm25
binding result [3]: binds

B5: Ab01-63Ghm28 (antibody, V domains shown)
VH: B4 VH with F112E
notes: Humanized or engineered mutant of Ab01-63G4; also called mutant Ab01-63Ghm28
binding result [3]: binds

B7: Ab01-91M2 (antibody, V domains shown)
VH: DVQLQESGGGLVQPGGSLRLSCAASGFTFSNYLMGWYRQAPGKERELVAAINSAGYSTVYAESVKGRFTTSRDNAKSMVYLQMNSLKAEDTAVYYCNARYDRWHDYWGQGTQVTVSS
binding result [3]: binds
binding result [4]: binds

B8: Ab01-122M1 (antibody, V domains shown)
VH: DVQLQESGGGLVQPGGSLKLSCTASRRIFTFTAAGWYRQAPGQQREFVAVIANGGHTNYADSVKGRFTISRDNAKNTVYLQMNSLKPEDTAVYYCNTPPAFGSWGPGTQVTVSS
binding result [3]: binds
binding result [4]: binds

B10: Ab01-110M1 (antibody, V domains shown)
VH: DVQLQESGGGLVQTGGSLRLSCAAPGFTLDDYAIGWFRQAPGKERERISCITSSTNRTYYANSVKGRFTISRDSAKNTVYLQMNSLKPEDTAVYYCAAEPILCVLWSAGGAMDYWGKGTQVTVSS
binding result [3]: binds
binding result [4]: binds

B11: Ab01-121M1 (antibody, V domains shown)
VH: DVQLQESGGGLVQPGGSLRLSCAASGSRFSFNVMGWHRQAPGKQRELVALISSGGTANYADSVKGRFTISRDNAGNTMYLQMNTLKPEDTAVYYCTATTPVGQYWGQGTQVTVSS
binding result [3]: binds
binding result [4]: binds

B12: Ab01-7M2 (antibody, V domains shown)
VH: DVQLQESGGGLVQPGGSLRLSCAASGFTFSSTPMYWYRQAPGKERDFVAIMAPGGYEDIADSVRGRFSISRDNGNNTMYLQMNSLKPEDTALYYCRALNSWGQGTQVTVSS
binding result [3]: binds
binding result [4]: binds

Second part, led by results:

EC50 [2]: 0.281 nM
B1: positive control antibody 2C4 (antibody, V domains shown)
VH: EVHLQQSGPELEKPGVSVKISCKASGFSFTDYNMNWVKQSSGKSLEWIGNIDPYYGRINYNQKFKGKATLSVDKSSSTAYMHLKSLTSEDSAVYYCATGAYTSGYSWFAYWGQGTLVTVSS
VL: ENVLTQSPGIMAASLGEKVTMTCSASSSVSSSYLHWYQQRSGASPKPLIHRTSNLASGVPARFSGSGSGTSYSLTISSVEAEDDATYYCQQWSGYPFTFGSGTKLEIK
notes: also called positive control 2C4; positive antibody
EC50 (nM), promoting the killing effects of NK92MI on target cells (K562 overexpressing human HHLA2) [1]: 0.192 nM

EC50 [2]: 0.043 nM
B3: Ab01-63M2 (antibody, V domains shown)
VH: B4 VH with E1D, L5Q, T55D, T74N, S75A, K76E, R87K, A88P, L122Q
notes: also called candidate parental antibody Ab01-63M2
EC50 (nM), promoting the killing effects of NK92MI on target cells (K562 overexpressing human HHLA2) [1]: 0.125 nM

binding result [3]: binds
B6: Ab01-63Ghm26 (antibody, V domains shown)
VH: B4 VH with D62Q
notes: Humanized or engineered mutant of Ab01-63G4; also called mutant Ab01-63Ghm26

binding result [3]: binds
binding result [4]: binds
B9: Ab01-126M1 (antibody, V domains shown)
VH: B8 VH with K19R, R26T, T32S, Q43K, A52T, N53G, N76D
